Experimental data as given in paper doi:10.1101/528042 (bioRxiv, 2019).

Molecular target: the molecule itself
Test: SEC

B1: S-OPA1 (short S1 isoform of splice form 1 human OPA1), wild type (natural protein, UniProt O60313 196-960, looked up)
chain: TDRGSESDKHFRKVSDKEKIDQLQEELLHTQLKYQRILERLEKENKELRKLVLQKDDKGIHHRKLKKSLIDMYSEVLDVLSDYDASYNTQDHLPRVVVVGDQSAGKTSVLEMIAQARIFPRGSGEMMTRSPVKVTLSEGPHHVALFKDSSREFDLTKEEDLAALRHEIELRMRKNVKEGCTVSPETISLNVKGPGLQRMVLVDLPGVINTVTSGMAPDTKETIFSISKAYMQNPNAIILCIQDGSVDAERSIVTDLVSQMDPHGRRTIFVLTKVDLAEKNVASPSRIQQIIEGKLFPMKALGYFAVVTGKGNSSESIEAIREYEEEFFQNSKLLKTSMLKAHQVTTRNLSLAVSDCFWKMVRESVEQQADSFKATRFNLETEWKNNYPRLRELDRNELFEKAKNEILDEVISLSQVTPKHWEEILQQSLWERVSTHVIENIYLPAAQTMNSGTFNTTVDIKLKQWTDKQLPNKAVEVAWETLQEEFSRFMTEPKGKEHDDIFDKLKEAVKEESIKRHKWNDFAEDSLRVIQHNALEDRSISDKQQWDAAIYFMEEALQARLKDTENAIENMVGPDWKKRWLYWKNRTQEQCVHNETKNELEKMLKCNEEHPAYLASDEITTVRKNLESRGVEVDPSLIKDTWHQVYRRHFLKTALNHCNLCRRGFYYYQRHFVDSELECNDVVLFWRIQRMLAITANTLRQQLTNTEVRRLEKNVKEVLEDFAEDGEKKIKLLTGKRVQLAEDLKKVREIQEKLDAFIEALHQEK
stoichiometry N: 2
